Publication PMC11449445, “Fission yeast Duc1 links to ER–PM contact sites and influences PM lipid composition and cytokinetic ring anchoring” (Journal of Cell Science, 2024)

What was measured:
His6–Scs2(1–127) [1] = molecular target: T1, His6–Scs2(1–127) (Schizosaccharomyces pombe (strain 972 / …, UniProt O60119)); test: pull-down (bead-bound His6-Scs2, Coomassie SDS-PAGE)
T1 chain: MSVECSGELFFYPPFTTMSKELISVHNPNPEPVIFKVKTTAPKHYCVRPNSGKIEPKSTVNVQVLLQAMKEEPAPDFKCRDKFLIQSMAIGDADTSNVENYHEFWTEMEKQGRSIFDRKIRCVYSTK

His6–Scs2(1–127) [2] = molecular target: T2, His6–Scs2(1–127) (S. pombe, UniProt O60119 1-127); test: pull-down; bead-bound His6–Scs2(1–127) (2–3 µg) incubated with 10 µg GST or GST–Duc1(351–380) in 500 µl 20 mM Tris-HCl pH 7.4, 150 mM NaCl, 0.1% NP-40, 30 min at 4°C; three washes; SDS-PAGE, Coomassie blue; settings: both partners purified
T2 construct: Scs2 (VAMP-associated protein, VAP), S. pombe, residues 1-127 (MSP domain), amplified from genomic DNA and cloned into pET15b; Cloned into the NdeI and BamHI sites of pET15b; also called Scs2 MSP domain; His-tagged version of the Scs2 MSP domain
T2 sequence (looked up): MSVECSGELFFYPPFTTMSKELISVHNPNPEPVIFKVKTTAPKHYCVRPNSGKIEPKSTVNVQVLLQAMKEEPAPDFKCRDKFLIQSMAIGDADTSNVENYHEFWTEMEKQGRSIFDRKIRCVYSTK

Does GKDVYKHGISNVPDDENEDDLQRYFTALEM (domain or fragment, S. pombe, UniProt O74504 351-380, looked up) [GST–Duc1(351–380)] bind (His6–Scs2(1–127) [1])?
Result: binds

Does GKDVYKHGISNVPDDENEDDLQRYFTALEM (domain or fragment, S. pombe, UniProt O74504 351-380, looked up) [GST–Duc1(351–380)] bind (His6–Scs2(1–127) [2])?
Result: binds
